Laboratory results taken from the supplement of paper PMC7125110.
± gives the standard error. For some assays here: This sample holds only a part of the variants without activity.

B1: glmS ribozyme (parent)
chain: AUAAAAGCGCCAGAACUACAGAAAUGUAGUUGACGAGGAGGAGGUUUAUCGAAUUUUCGGCGGAUGCCUCCAAA

Columns and labels:
Settings in all cases: with glucosamine-6-phosphate
glucosamine-6-phosphate [1] = variants of: B1; assay: kcat; higher = faster cleavage; RNA array
Outline: (§1)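 Tracking of barcoded ribozyme variants used a hybridised Cy3 probe at 37 °C, after in situ transcription by E. coli RNA polymerase on sequenced MiSeq chips. The flowed solution held 40 μM to 10 mM glucosamine-6-phosphate in HEPES/KCl/Mg(OAc)2 buffer, and imaging ran over ~14 h. kobs was taken from exponential decay fits of normalised per-tile medians, and kcat and KM from weighted Michaelis–Menten fits.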

glucosamine-6-phosphate [2] = variants of: B1; assay: KM; higher = weaker cofactor use; RNA array
Outline: as §1

glucosamine-6-phosphate [3] = variants of: B1; assay: self-cleavage kobs at 10000 uM GlcN6P; higher = faster cleavage; RNA array
Outline: as §1

glucosamine-6-phosphate [4] = variants of: B1; assay: self-cleavage kobs at 40 uM GlcN6P; higher = faster cleavage; RNA array
Outline: as §1

glucosamine-6-phosphate [5] = variants of: B1; assay: self-cleavage kobs at 160 uM GlcN6P; higher = faster cleavage; RNA array
Outline: as §1

glucosamine-6-phosphate [6] = variants of: B1; assay: self-cleavage kobs at 640 uM GlcN6P; higher = faster cleavage; RNA array
Outline: as §1

glucosamine-6-phosphate [7] = variants of: B1; assay: self-cleavage kobs at 2500 uM GlcN6P; higher = faster cleavage; RNA array
Outline: as §1

Variant	kcat (glucosamine-6-phosphate [1]) [s⁻¹]	KM (glucosamine-6-phosphate [2]) [µM]	self-cleavage kobs at 10000 uM GlcN6P (glucosamine-6-phosphate [3]) [s⁻¹]	self-cleavage kobs at 40 uM GlcN6P (glucosamine-6-phosphate [4]) [s⁻¹]	self-cleavage kobs at 160 uM GlcN6P (glucosamine-6-phosphate [5]) [s⁻¹]	self-cleavage kobs at 640 uM GlcN6P (glucosamine-6-phosphate [6]) [s⁻¹]	self-cleavage kobs at 2500 uM GlcN6P (glucosamine-6-phosphate [7]) [s⁻¹]
C10A C68A	1.98e-05 ± 3.8e-06	–	–	–	–	–	–
A6C C67A	3.57e-05 ± 2.8e-07	1260 ± 54	3.18e-05 ± 9.1e-06	–	–	–	–
A6C C67U	2.53e-05 ± 7.4e-07	660 ± 160	2.36e-05 ± 7.4e-06	< 1e-05	< 1e-05	–	–
C10G G60U	4.68e-05 ± 1.2e-05	–	2.05e-05 ± 1e-05	< 1e-05	< 1e-05	–	–
C10G G60C	0.00245 ± 0.00047	2180 ± 610	0.00198 ± 0.00023	3.56e-05 ± 6.7e-06	0.000167 ± 2.9e-05	0.000733 ± 8.9e-05	0.00117 ± 0.00023
A6U G13U	< 1e-05	–	–	< 1e-05	–	< 1e-05	–
C11A C50A	1.11e-05 ± 3.1e-06	–	–	–	–	–	–
C11A C71U	0.000122 ± 1.1e-05	451 ± 210	0.000113 ± 8e-06	–	–	7.03e-05 ± 1.1e-05	0.000147 ± 2.3e-05
A6G U30A	5.86e-05 ± 1.4e-05	–	4.4e-05 ± 1.9e-05	–	–	–	3.73e-05 ± 1e-05
A6C A12C	4.52e-05 ± 3.2e-06	1190 ± 370	4.11e-05 ± 6.6e-06	–	–	–	2.86e-05 ± 7.1e-06
A6C A53G	0.000117 ± 1e-05	3110 ± 770	8.97e-05 ± 7.3e-06	–	–	3.04e-05 ± 1.3e-05	4.95e-05 ± 7.6e-06
C11A U30A C50U	2.21e-05 ± 3.2e-06	–	–	–	–	–	–
A6C U55A	9.15e-05 ± 2.5e-05	–	7.27e-05 ± 1.2e-05	–	–	–	7.01e-05 ± 1.6e-05
A6U U30C U31G	9.88e-05 ± 6.8e-06	7220 ± 1100	5.74e-05 ± 1.6e-05	–	–	–	–
A6C U47G	1.58e-05 ± 2.8e-06	–	–	–	–	–	–
A6C U47C	1.02e-05 ± 2.4e-07	526 ± 77	–	–	< 1e-05	–	–
A6C U47A	0.0001 ± 5.6e-06	6300 ± 770	6.15e-05 ± 1.4e-05	–	–	–	–
C10U G32U	4.97e-05 ± 3.1e-06	–	4.67e-05 ± 6.1e-06	–	< 1e-05	–	5.05e-05 ± 1.2e-05
G7U G38C	< 1e-05	–	< 1e-05	< 1e-05	–	< 1e-05	–
C11G C67G C70G	5.32e-05 ± 2.1e-05	–	–	–	–	8.18e-05 ± 2.2e-05	–
